From the supplement of paper PMC6757056
± gives the standard deviation of the averaged measurements.

B1: library; a variant is named by its letters at N, in order (parent)
chain: GCUGUCACCGGUGUAUUACCCUAGUGGUCGACCGGUCUGAUGAGUCUNNNNNNAGACGAAACAGC

What was measured:
[1] = variants of: B1; assay: normalized RNA/DNA level with ligand (relative to sTRSVctl = 100) (log10 (% of sTRSVctl)); ligand: hypoxanthine (xanthine aptamer); higher = less ribozyme self-cleavage, higher mRNA level; conditions: ligand concentration (+) RNA-Seq: 5 mM, HEK293T, reporter: mCherry (pCS4076), ligand present: yes
Procedure, shortened: (§1)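 Library plasmids encoding reporter-linked ribozyme switches (mCherry, or eGFP for some folinic acid experiments) were transfected into HEK293T at 4 µg per 6-well well. Ligand, when used, was added 1 h before transfection. Total RNA was extracted with EDTA 72 h later, then reverse-transcribed, amplified, barcoded and sequenced. RNA level was RNA reads over DNA reads, divided by a spiked-in non-cleaving control (or the top 25 sequences), ×100, log10; only sequences with ≥100 DNA reads were kept.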

[2] = variants of: B1; assay: normalized RNA/DNA level without ligand (relative to sTRSVctl = 100) (log10 (% of sTRSVctl)); ligand: hypoxanthine (xanthine aptamer); higher = less ribozyme self-cleavage, higher mRNA level; conditions: HEK293T, reporter: mCherry (pCS4076), ligand present: no
Procedure, shortened: as §1

Variant | normalized RNA/DNA level with ligand (log10) [1] | normalized RNA/DNA level without ligand (log10) [2]
GCUGUCACCGGUGUAUUACCCUAGUGGUCGACCGGUCUGAUGAGUCUAUCGAAAGACGAAACAGC [AUCGAA] | 1.863 ± 0.01 | 1.73 ± 0.04
GCUGUCACCGGUGUAUUACCCUAGUGGUCGACCGGUCUGAUGAGUCUUUCGCCAGACGAAACAGC [UUCGCC] | 1.95 ± 0.046 | 1.856 ± 0.015
GCUGUCACCGGUGUAUUACCCUAGUGGUCGACCGGUCUGAUGAGUCUCUCGACAGACGAAACAGC [CUCGAC] | 1.96 ± 0.023 | 1.808 ± 0.017
GCUGUCACCGGUGUAUUACCCUAGUGGUCGACCGGUCUGAUGAGUCUCUCGAGAGACGAAACAGC [CUCGAG] | 1.9019 ± 0.00066 | 1.6 ± 0.031
GCUGUCACCGGUGUAUUACCCUAGUGGUCGACCGGUCUGAUGAGUCUGUCGCCAGACGAAACAGC [GUCGCC] | 1.9 ± 0.05 | 1.91 ± 0.08
GCUGUCACCGGUGUAUUACCCUAGUGGUCGACCGGUCUGAUGAGUCUAUCCUUAGACGAAACAGC [AUCCUU] | 1.98 ± 0.027 | 1.91 ± 0.055
GCUGUCACCGGUGUAUUACCCUAGUGGUCGACCGGUCUGAUGAGUCUAUCCUAAGACGAAACAGC [AUCCUA] | 1.94 ± 0.062 | 1.9 ± 0.043
GCUGUCACCGGUGUAUUACCCUAGUGGUCGACCGGUCUGAUGAGUCUCUCCGUAGACGAAACAGC [CUCCGU] | 1.95 ± 0.051 | 1.88 ± 0.019
GCUGUCACCGGUGUAUUACCCUAGUGGUCGACCGGUCUGAUGAGUCUCUCCGCAGACGAAACAGC [CUCCGC] | 1.967 ± 0.019 | 1.95 ± 0.026
GCUGUCACCGGUGUAUUACCCUAGUGGUCGACCGGUCUGAUGAGUCUCUCCGAAGACGAAACAGC [CUCCGA] | 1.96 ± 0.13 | 1.884 ± 0.0062
GCUGUCACCGGUGUAUUACCCUAGUGGUCGACCGGUCUGAUGAGUCUCUCCGGAGACGAAACAGC [CUCCGG] | 1.93 ± 0.029 | 1.95 ± 0.065
GCUGUCACCGGUGUAUUACCCUAGUGGUCGACCGGUCUGAUGAGUCUGUCCUUAGACGAAACAGC [GUCCUU] | 1.94 ± 0.11 | 1.95 ± 0.017
GCUGUCACCGGUGUAUUACCCUAGUGGUCGACCGGUCUGAUGAGUCUGUCCUCAGACGAAACAGC [GUCCUC] | 1.9 ± 0.016 | 1.93 ± 0.057
GCUGUCACCGGUGUAUUACCCUAGUGGUCGACCGGUCUGAUGAGUCUGUCCUAAGACGAAACAGC [GUCCUA] | 1.95 ± 0.069 | 1.934 ± 0.015
GCUGUCACCGGUGUAUUACCCUAGUGGUCGACCGGUCUGAUGAGUCUGUCCUGAGACGAAACAGC [GUCCUG] | 1.88 ± 0.024 | 1.52 ± 0.022
GCUGUCACCGGUGUAUUACCCUAGUGGUCGACCGGUCUGAUGAGUCUCUCCUAAGACGAAACAGC [CUCCUA] | 1.96 ± 0.075 | 1.87 ± 0.055
GCUGUCACCGGUGUAUUACCCUAGUGGUCGACCGGUCUGAUGAGUCUCUCCUGAGACGAAACAGC [CUCCUG] | 1.94 ± 0.021 | 1.953 ± 0.0068
GCUGUCACCGGUGUAUUACCCUAGUGGUCGACCGGUCUGAUGAGUCUCUCCUUAGACGAAACAGC [CUCCUU] | 1.99 ± 0.087 | 1.89 ± 0.056
GCUGUCACCGGUGUAUUACCCUAGUGGUCGACCGGUCUGAUGAGUCUGUCGAUAGACGAAACAGC [GUCGAU] | 1.93 ± 0.07 | 1.76 ± 0.039
GCUGUCACCGGUGUAUUACCCUAGUGGUCGACCGGUCUGAUGAGUCUUUCCCUAGACGAAACAGC [UUCCCU] | 2 ± 0.052 | 1.935 ± 0.0058
GCUGUCACCGGUGUAUUACCCUAGUGGUCGACCGGUCUGAUGAGUCUAUCCGGAGACGAAACAGC [AUCCGG] | 1.954 ± 0.0038 | 1.7 ± 0.051

Variant | normalized RNA/DNA level with ligand (log10) [1] | normalized RNA/DNA level without ligand (log10) [2]
GCUGUCACCGGUGUAUUACCCUAGUGGUCGACCGGUCUGAUGAGUCUAUCCGUAGACGAAACAGC [AUCCGU] | 1.96 ± 0.0099 | 1.91 ± 0.018
GCUGUCACCGGUGUAUUACCCUAGUGGUCGACCGGUCUGAUGAGUCUAUCCCUAGACGAAACAGC [AUCCCU] | 1.97 ± 0.042 | 1.9 ± 0.022
GCUGUCACCGGUGUAUUACCCUAGUGGUCGACCGGUCUGAUGAGUCUGUCCGAAGACGAAACAGC [GUCCGA] | 1.9508 ± 0.00054 | 1.732 ± 0.013
GCUGUCACCGGUGUAUUACCCUAGUGGUCGACCGGUCUGAUGAGUCUGUCCGUAGACGAAACAGC [GUCCGU] | 1.891 ± 0.0098 | 1.86 ± 0.041
GCUGUCACCGGUGUAUUACCCUAGUGGUCGACCGGUCUGAUGAGUCUGUCCGCAGACGAAACAGC [GUCCGC] | 1.9 ± 0.055 | 1.85 ± 0.024
GCUGUCACCGGUGUAUUACCCUAGUGGUCGACCGGUCUGAUGAGUCUGUCCCUAGACGAAACAGC [GUCCCU] | 1.934 ± 0.016 | 1.92 ± 0.05
GCUGUCACCGGUGUAUUACCCUAGUGGUCGACCGGUCUGAUGAGUCUCUCCCUAGACGAAACAGC [CUCCCU] | 1.94 ± 0.039 | 1.97 ± 0.043
GCUGUCACCGGUGUAUUACCCUAGUGGUCGACCGGUCUGAUGAGUCUAUCGCAAGACGAAACAGC [AUCGCA] | 1.9253 ± 0.0018 | 1.77 ± 0.028
GCUGUCACCGGUGUAUUACCCUAGUGGUCGACCGGUCUGAUGAGUCUAUCGCGAGACGAAACAGC [AUCGCG] | 1.863 ± 0.0079 | 1.409 ± 0.0031
GCUGUCACCGGUGUAUUACCCUAGUGGUCGACCGGUCUGAUGAGUCUUUCGAGAGACGAAACAGC [UUCGAG] | 1.88 ± 0.038 | 1.544 ± 0.0067
GCUGUCACCGGUGUAUUACCCUAGUGGUCGACCGGUCUGAUGAGUCUUUCGACAGACGAAACAGC [UUCGAC] | 1.9 ± 0.074 | 1.781 ± 0.0058
GCUGUCACCGGUGUAUUACCCUAGUGGUCGACCGGUCUGAUGAGUCUUUCCUAAGACGAAACAGC [UUCCUA] | 1.94 ± 0.016 | 1.89 ± 0.0066
GCUGUCACCGGUGUAUUACCCUAGUGGUCGACCGGUCUGAUGAGUCUUUCCUUAGACGAAACAGC [UUCCUU] | 1.92 ± 0.081 | 1.891 ± 0.0051
GCUGUCACCGGUGUAUUACCCUAGUGGUCGACCGGUCUGAUGAGUCUUUCCUCAGACGAAACAGC [UUCCUC] | 1.97 ± 0.038 | 2.04 ± 0.025
GCUGUCACCGGUGUAUUACCCUAGUGGUCGACCGGUCUGAUGAGUCUUUCCGUAGACGAAACAGC [UUCCGU] | 2 ± 0.039 | 1.85 ± 0.025
GCUGUCACCGGUGUAUUACCCUAGUGGUCGACCGGUCUGAUGAGUCUUUCCGCAGACGAAACAGC [UUCCGC] | 2.011 ± 0.003 | 1.89 ± 0.035
GCUGUCACCGGUGUAUUACCCUAGUGGUCGACCGGUCUGAUGAGUCUUUCCGAAGACGAAACAGC [UUCCGA] | 1.97 ± 0.029 | 1.94 ± 0.03
GCUGUCACCGGUGUAUUACCCUAGUGGUCGACCGGUCUGAUGAGUCUUUCCGGAGACGAAACAGC [UUCCGG] | 1.98 ± 0.024 | 1.903 ± 0.011
GCUGUCACCGGUGUAUUACCCUAGUGGUCGACCGGUCUGAUGAGUCUCUCGCAAGACGAAACAGC [CUCGCA] | 1.94 ± 0.062 | 1.847 ± 0.002
GCUGUCACCGGUGUAUUACCCUAGUGGUCGACCGGUCUGAUGAGUCUCUCGCCAGACGAAACAGC [CUCGCC] | 1.99 ± 0.026 | 1.883 ± 0.0029
GCUGUCACCGGUGUAUUACCCUAGUGGUCGACCGGUCUGAUGAGUCUCUCGCGAGACGAAACAGC [CUCGCG] | 1.983 ± 0.0024 | 1.9 ± 0.084
